# Data as given in patent EP2469278A1, “Reagentless fluorescent biosensors from nanofitins, rational design methods to create reagentless fluorescent biosensors and methods of their use” (Institut Pasteur, priority 2010, dated 2012).
# Values joined by “and” are separate entries in the source; they are usually repeats but may differ in a detail not shown here. Identical values can stand only once.
# Legend:
# hen egg-white lysozyme [1] = target: T1, hen egg-white lysozyme (hen, UniProt P00698 19-147); experiment: from Kd in solution: fluorescence titration of conjugate against competition Biacore of H4S(wt)
# T1 construct: also called HEL
# hen egg-white lysozyme [2] = target: T1, hen egg-white lysozyme; experiment: fluorescence titration in solution, 0.3 µM conjugate, buffer C, 25 °C
# [3] = target: bovine serum albumin (BSA) (Bos taurus, UniProt P02769); experiment: Specificity: titration of H4S conjugates with heterologous antigen BSA, monitored by fluorescence; conditions: for ΔF∞/F0: BSA as antigen, buffer C, 0.3 µM conjugate; for relative sensitivities sr lower for BSA than for HEL: [B]0 = 0.3 µM
# [4] = target: T2, hen egg-white lysozyme (HEL) (Gallus gallus, UniProt P00698); experiment: Titration of H4S conjugates with HEL, monitored by fluorescence; format: binding; conditions: for sr: relative sensitivity of the conjugate at a fixed concentration of 0.3 µM (Equation 8), buffer C
# T2 construct: hen egg-white lysozyme (HEL); purchased Sigma
# Procedure: (§1) The binding and fluorescence experiments were performed at equilibrium as if the preparations of conjugates were homogeneous, i. e. as if yc = 1. The binding reactions were conducted by incubating 0.3 µM of conjugate with variable concentrations of the HEL or BSA antigens in a volume of 1 mL, for 30 min in the dark with gentle shaking. The reactions were carried out in Buffer C or in a mixture v:(1-v) of calf serum and Buffer C as indicated in example 2.
# The conjugate (or biosensor) B and antigen A form a 1:1 complex B:A according to the reaction: B + A↔B:A [formula] At equilibrium, the concentration [B:A] of the complex is given by the equation: [B:A] = 0.5{[B]0+[A]0+Kd-(((([B]0+[A]0+Kd))^2-4[B]0[A]0))^(1/2)} [formula] where Kd is the dissociation constant, and [A]0 and [B]0 are the total concentrations of A and B, respectively (Renard et al., 2003).
# The fluorescence of the IANBD conjugates was excited at 485 nm (5 nm slit width) and its intensity measured between 520 and 550 nm (20 nm slit width) with a FP-6300 spectrofluorometer (Jasco). The signal of HEL alone or BSA alone was measured in an independent experiment and subtracted from the global signal of the binding mixture to give the specific fluorescence intensity F of each conjugate. The intensity F at a given value of [A]0 satisfies the following equation: (F-F0)/F0 = ΔF/F0 = (ΔF∞/F0)([B:A]/[B]0) [formula] where F0 and F∞ are the values of F at zero and saturating concentrations of A (Renard et al., 2003). The values of ΔF∞/F0, Kd, and [B]0 could be determined by fitting Equation 5, in which [B:A] is given by Equation 4, to the experimental values of ΔF/F0, measured in a titration experiment. The fittings were performed with the Kaleidagraph software (Synergy Software).
# The sensitivity s and relative sensitivity sr of a conjugate can be defined by the following equations for the low values of [A]0, i. e. in the initial part of the titration curve: ΔF = s[A]0 [formula] ΔF/F0 = sr [A]0 /[B]0 [formula] s and sr can be expressed as functions of characteristic parameters of the conjugate: sr = (ΔF∞/F0)([B]0/(Kd+[B]0)) [formula] s = fb sr [formula] where fb = F0/[B]0 is the molar fluorescence of the free conjugate (Renard and Bedouelle, 2004). Equation 8 implies that sr is maximal when the biosensor B is present at a concentration [B]0 >> Kd, as every newly titrated molecule A then forms a complex. Equation 6 implies that the lower limit of detection δ[A]0 of the conjugate is linked to the lower limit of measurement of the spectrofluorometer δF by the following equations: δ[A]0 = s^-1 δF = sr^-1 [B]0 (δF/F0) [formula]
# [5] = target: T2, hen egg-white lysozyme (HEL); experiment: Selectivity: fluorescence signal of conjugate in mixtures of calf serum and buffer C; format: binding; conditions: 0.3 µM conjugate, 10 µM HEL
# Procedure: as §1
# The selectivity of a biosensor refers to the extent to which it can recognize a particular analyte in a complex mixture without interference from other components (Vessman et al., 2001). The selectivity of the H4S(K24ANBD) conjugate was characterized by comparing its fluorescence properties in serum and in buffer C. More specifically, the variations of the F0 and F10µM parameters were measured as functions of the concentration in serum (Figure 3). Given that Kd = 0.1 µM for H4S(K24ANBD), this conjugate was fully saturated with HEL at 10 µM. […] As expected, the absorbance of the serum alone increased linearly with its concentration, in agreement with the Beer-Lambert law, at both 485 nm and 536 nm, which were the wavelengths of fluorescence excitation and emission in our experiments. […] The same increase and decrease was observed when measuring the fluorescence of a conjugate between IANBD and 2-mercaptoethanol. […]
# hen egg-white lysozyme [6] = target: T1, hen egg-white lysozyme; experiment: Biacore, HEL immobilised; Kd'' dissociation constant at steady state
# hen egg-white lysozyme [7] = target: T1, hen egg-white lysozyme; experiment: Biacore kinetics, HEL immobilised; Kd' = koff/kon
# hen egg-white lysozyme [8] = target: T1, hen egg-white lysozyme; experiment: Biacore kinetics, HEL immobilised on CM5 chip, buffer E (reducing), 25 °C, 1:1 Langmuir model
# bovine serum albumin = target: T3, bovine serum albumin (bovine, UniProt P02769 25-607); experiment: fluorescence titration with BSA, 0.3 µM conjugate, buffer C
# T3 construct: Heterologous antigen used as specificity control; also called BSA
Molecule,ΔΔG (conjugate against H4S(wt)) (hen egg-white lysozyme [1]),Kd (hen egg-white lysozyme [2]) [nM],ΔF∞/F0 (maximal relative variation of fluorescence on HEL binding) (hen egg-white lysozyme [2]),Kd (hen egg-white lysozyme [6]) [nM],Kd (hen egg-white lysozyme [7]) [nM],koff (hen egg-white lysozyme [8]) [s⁻¹],kon (hen egg-white lysozyme [8]) [M⁻¹ s⁻¹],other results
"H4S conjugate, IANBD fluorophore coupled at position Lys28 (designed binder, Cys at position 28 (H4S numbering) coupled to IANBD ester (ANBD)) MRGSHHHHHHGSVKVKFFWNGEEKEVDTSKIVWVKRAGCSVLFIYDDNGKNGYGDVTEKDAPKELLDMLARAEREKKLN",≤ 0.5 kcal/mol,28,0.26,–,–,–,–,–
"Lys24: H4S conjugate: residue Lys24 changed into cysteine and coupled with IANBD (SEQ ID NO: 61) (conjugate, IANBD fluorophore on Cys24) MRGSHHHHHHGSVKVKFFWNGEEKEVDTSKIVWVCRAGKSVLFIYDDNGKNGYGDVTEKDAPKELLDMLARAEREKKLN",–,–,–,–,–,–,–,"ΔF∞/F0 [3]: 0.26± 0.01; relative sensitivities sr lower for BSA than for HEL [3]: 106 fold; Kd ([4]; HEL, rounded value quoted in text, read-out: Kd): 100 nM; lower limit of detection δ[A]0 ([4]; [B]0 = 0.3 µM, δF/F0 = […] (Equation 10)): 0.35 nM; sr ([4]; HEL): 6.61; sr ([4]; HEL, listed as H4S(Lys24ANBD)): 6.6; (F10µM - F0)/F0 ([5]; in ≤ 50 % serum): ≥ 0.25; concentration of serum in which the conjugate could still operate ([5]; serum (v/v) in buffer C): ≤ 50%"
"Ala26: H4S conjugate: residue Ala26 changed into cysteine and coupled with IANBD (SEQ ID NO: 62) (conjugate, IANBD fluorophore on Cys26) MRGSHHHHHHGSVKVKFFWNGEEKEVDTSKIVWVKRCGKSVLFIYDDNGKNGYGDVTEKDAPKELLDMLARAEREKKLN",–,–,–,–,–,–,–,ΔF∞/F0 [3]: 0.73 ± 0.04; relative sensitivities sr lower for BSA than for HEL [3]: 36 fold; sr ([4]; HEL): 4.66
"H4S conjugate, IANBD fluorophore coupled at position Thr46 (designed binder, Cys at position 46 (H4S numbering) coupled to IANBD ester (ANBD)) MRGSHHHHHHGSVKVKFFWNGEEKEVDTSKIVWVKRAGKSVLFIYDDNGKNGYGDVCEKDAPKELLDMLARAEREKKLN",≤ 0.5 kcal/mol,100,0.36,–,–,–,–,–
"H4S conjugate, IANBD fluorophore coupled at position Lys39 (designed binder, Cys at position 39 (H4S numbering) coupled to IANBD ester (ANBD)) MRGSHHHHHHGSVKVKFFWNGEEKEVDTSKIVWVKRAGKSVLFIYDDNGCNGYGDVTEKDAPKELLDMLARAEREKKLN",≥ 0.5 kcal/mol and ≤ 1.2 kcal/mol,126,1.65,–,–,–,–,–
"H4S conjugate, IANBD fluorophore coupled at position Tyr42 (designed binder, Cys at position 42 (H4S numbering) coupled to IANBD ester (ANBD)) MRGSHHHHHHGSVKVKFFWNGEEKEVDTSKIVWVKRAGKSVLFIYDDNGKNGCGDVTEKDAPKELLDMLARAEREKKLN",≥ 1.5 kcal/mol,2480,6.6,–,–,–,–,–
"H4S conjugate, IANBD fluorophore coupled at position Trp8 (designed binder, Cys at position 8 (H4S numbering) coupled to IANBD ester (ANBD)) MRGSHHHHHHGSVKVKFFCNGEEKEVDTSKIVWVKRAGKSVLFIYDDNGKNGYGDVTEKDAPKELLDMLARAEREKKLN",≥ 0.5 kcal/mol and ≤ 1.2 kcal/mol,189,1.47,–,–,–,–,–
"H4S conjugate, IANBD fluorophore coupled at position Val21 (designed binder, Cys at position 21 (H4S numbering) coupled to IANBD ester (ANBD)) MRGSHHHHHHGSVKVKFFWNGEEKEVDTSKICWVKRAGKSVLFIYDDNGKNGYGDVTEKDAPKELLDMLARAEREKKLN",≥ 0.5 kcal/mol and ≤ 1.2 kcal/mol,296,6.3,–,–,–,–,–
"H4S conjugate, IANBD fluorophore coupled at position Phe7 (designed binder, Cys at position 7 (H4S numbering) coupled to IANBD ester (ANBD)) MRGSHHHHHHGSVKVKFCWNGEEKEVDTSKIVWVKRAGKSVLFIYDDNGKNGYGDVTEKDAPKELLDMLARAEREKKLN",≤ 0.5 kcal/mol,42,0.26,–,–,–,–,–
"H4S conjugate, IANBD fluorophore coupled at position Ser29 (designed binder, Cys at position 29 (H4S numbering) coupled to IANBD ester (ANBD)) MRGSHHHHHHGSVKVKFFWNGEEKEVDTSKIVWVKRAGKCVLFIYDDNGKNGYGDVTEKDAPKELLDMLARAEREKKLN",≤ 0.5 kcal/mol,33,0.55,–,–,–,–,–

# Further lines, with some results ahead:
ΔΔG (conjugate against H4S(wt)) (hen egg-white lysozyme [1]),Kd (hen egg-white lysozyme [2]) [nM],ΔF∞/F0 (maximal relative variation of fluorescence on HEL binding) (hen egg-white lysozyme [2]),Kd (hen egg-white lysozyme [6]) [nM],Kd (hen egg-white lysozyme [7]) [nM],koff (hen egg-white lysozyme [8]) [s⁻¹],kon (hen egg-white lysozyme [8]) [M⁻¹ s⁻¹],Molecule,other results
–,–,–,54,60,0.023,380000,"H4S cysteine mutant A26C (not conjugated) (designed binder, Free cysteine mutant, measured in reducing conditions) MRGSHHHHHHGSVKVKFFWNGEEKEVDTSKIVWVKRCGKSVLFIYDDNGKNGYGDVTEKDAPKELLDMLARAEREKKLN",–
–,–,–,104,117,0.023,160000,"H4S(K24C) (not conjugated) (designed binder, Free cysteine mutant, measured in reducing conditions) MRGSHHHHHHGSVKVKFFWNGEEKEVDTSKIVWVCRAGKSVLFIYDDNGKNGYGDVTEKDAPKELLDMLARAEREKKLN",–
–,–,–,66,68,0.03,450000,"H4S cysteine mutant W8C (not conjugated) (designed binder, Free cysteine mutant, measured in reducing conditions) MRGSHHHHHHGSVKVKFFCNGEEKEVDTSKIVWVKRAGKSVLFIYDDNGKNGYGDVTEKDAPKELLDMLARAEREKKLN",–
–,–,–,389,332,0.011,40000,"H4S cysteine mutant V21C (not conjugated) (designed binder, Free cysteine mutant, measured in reducing conditions) MRGSHHHHHHGSVKVKFFWNGEEKEVDTSKICWVKRAGKSVLFIYDDNGKNGYGDVTEKDAPKELLDMLARAEREKKLN",–
–,–,–,24,38,0.012,310000,"H4S cysteine mutant K39C (not conjugated) (designed binder, Free cysteine mutant, measured in reducing conditions) MRGSHHHHHHGSVKVKFFWNGEEKEVDTSKIVWVKRAGKSVLFIYDDNGCNGYGDVTEKDAPKELLDMLARAEREKKLN",–
≥ 0.5 kcal/mol and ≤ 1.2 kcal/mol,206,7.9,–,–,–,–,"H4S(A26ANBD) (designed binder, Cys at position 26 (H4S numbering) coupled to IANBD ester (ANBD), also called Ala26) MRGSHHHHHHGSVKVKFFWNGEEKEVDTSKIVWVKRCGKSVLFIYDDNGKNGYGDVTEKDAPKELLDMLARAEREKKLN",Kd (bovine serum albumin): 1400 nM
